{"source": "paper PMC5477539", "system": "DNA polymerase III core (alpha-epsilon-theta) (Escherichia coli)", "test": "single-molecule optical tweezers; fit of exonucleolysis initiation rate vs protein concentration (two-step model)", "conditions": "biotinylated oligonucleotide ligated at one end; Optical tweezers buffer, salt, pH and temperature not given in the material; constant template force (55 pN for k2)", "data": [{"substance": "primer-template junction of single stretched DNA (8.1 kbp pBACgus11 construct or 38.5 kbp lambda DNA)", "values": [{"measurement": "Kd", "value": 0.13, "unit": "µM"}]}]}
